Source: paper PMC4820223

Experiments:
[1] = target: UbL-mCherry-FRB-MBP proteasome adaptor
[2] = target: UbL-mCherry-GAI(1-92) proteasome adaptor (UniProt Q9LQT8)

For FKBP-GFP-tail target protein, which depletion of the GFP target (GFP fluorescence by flow cytometry) in HEK293 cells after 4 h with 1, 2 or 5 uM rapalog; dimerisation bridged by rapalog [1] is on record?
Its depletion of the GFP target (GFP fluorescence by flow cytometry) in HEK293 cells after 4 h with 1, 2 or 5 uM rapalog; dimerisation bridged by rapalog is 90%.

Which depletion of the GFP target (GFP fluorescence by flow cytometry) in HEK293 cells after 24 h with 10 to 50 uM and higher GA3-AM; dimerisation bridged by gibberellin GA3 [2] does the source give for GID1-GFP-tail target protein here?
Its depletion of the GFP target (GFP fluorescence by flow cytometry) in HEK293 cells after 24 h with 10 to 50 uM and higher GA3-AM; dimerisation bridged by gibberellin GA3 is 80%.
